Source: patent US20100129369A1 (Eli Lilly, published 2010)

How the values were obtained:
human c-Met ECD-Fc-Flis [1] = target: T1, human c-Met ECD-Fc-Flis (human); assay: HGF-blocking ELISA: HGF signal on coated c-Met ECD-Fc-Flis; Ab 30.52 ng/mL
T1 construct: c-Met ECD fused to Fc with flag- and His-tag at the C-terminus; also called human c-Met extracellular domain (ECD)-Fc-Flis fusion; human c-Met-Flis-Fc ECD
Procedure: (§1) Wells of 96-well EIA/RIA high binding plates (Costar, #2592) are coated with 100 μL of human c-Met ECD-Fc-Flis (SEQ ID NO:72) (2 μg/mL) in Dulbecco's phosphate buffered saline (DPBS) overnight at room temperature; washed four times with wash buffer (Tris-buffered saline, pH 8.0, with 0.05% (v/v) polysorbate 20 (TWEEN®-20) (TBS-T) (BioFX Labs, # WSHW-1000-01) in a plate washer; blocked by adding 300 μL of blocking buffer (TBS-T plus 1% (w/v) bovine serum albumin (BSA) (Jackson Immuno, #001-000-162); and incubating for 60 min. at 37° C. Blocking buffer is then removed from the wells and 50 μL of antibodies in blocking buffer at final concentrations as indicated in Table 7 are added into each well, respectively. […] The plates with c-Met antibodies are incubated for 90 min. at 37° C. […] The wells are then washed four times with TBS-T in a plate washer. […] The plates are incubated for 90 min. at room temperature. The wells are again washed four times with TBS-T in a plate washer. 100 μL of a 1:200 dilution of streptavidin-horseradish peroxidase (HRP) (R&D Systems, DY998) in blocking buffer are added to each well. The plates are incubated for 30 min. at room temperature. The wells are washed four times with TBS-T in a plate washer. 100 μL/well of substrate solution (BioFx, #TMBW-1000-01) are then added, and the plates are incubated for 10 min. at room temperature. To stop the reaction, 100 μL/well of stop solution (BioFx, # LSTP-1000-01) are added. The samples are read at a wavelength of 450-570 nm on a microplate reader (Spectra, MAX 190) and no background is subtracted.

human c-Met ECD-Fc-Flis [2] = target: T1, human c-Met ECD-Fc-Flis; assay: HGF-blocking ELISA: HGF signal on coated c-Met ECD-Fc-Flis; Ab 122.07 ng/mL
Procedure: as §1

human c-Met ECD-Fc-Flis [3] = target: T1, human c-Met ECD-Fc-Flis; assay: HGF-blocking ELISA: HGF signal on coated c-Met ECD-Fc-Flis; Ab 125000.00 ng/mL
Procedure: as §1

human c-Met ECD-Fc-Flis [4] = target: T1, human c-Met ECD-Fc-Flis; assay: HGF-blocking ELISA: HGF signal on coated c-Met ECD-Fc-Flis; Ab 7.63 ng/mL
Procedure: as §1

human c-Met ECD-Fc-Flis [5] = target: T1, human c-Met ECD-Fc-Flis; assay: HGF-blocking ELISA: HGF signal on coated c-Met ECD-Fc-Flis; Ab 1953.13 ng/mL
Procedure: as §1

human c-Met ECD-Fc-Flis [6] = target: T1, human c-Met ECD-Fc-Flis; assay: HGF-blocking ELISA: HGF signal on coated c-Met ECD-Fc-Flis; Ab 1.91 ng/mL
Procedure: as §1

human c-Met ECD-Fc-Flis [7] = target: T1, human c-Met ECD-Fc-Flis; assay: HGF-blocking ELISA: HGF signal on coated c-Met ECD-Fc-Flis; Ab 0.48 ng/mL
Procedure: as §1

human c-Met ECD-Fc-Flis [8] = target: T1, human c-Met ECD-Fc-Flis; assay: HGF-blocking ELISA: HGF signal on coated c-Met ECD-Fc-Flis; Ab 488.28 ng/mL
Procedure: as §1

human c-Met ECD-Fc-Flis [9] = target: T1, human c-Met ECD-Fc-Flis; assay: HGF-blocking ELISA: HGF signal on coated c-Met ECD-Fc-Flis; Ab 0.00 ng/mL (HGF only)
Procedure: as §1

human c-Met ECD-Fc-Flis [10] = target: T1, human c-Met ECD-Fc-Flis; assay: HGF-blocking ELISA: HGF signal on coated c-Met ECD-Fc-Flis; Ab 7812.50 ng/mL
Procedure: as §1

human c-Met [11] = target: T2, human c-Met (human, UniProt P08581 25-1390); assay: cell-based or functional assay
human c-Met ECD-Fc-Flis [12] = target: T1, human c-Met ECD-Fc-Flis; assay: HGF-blocking ELISA: HGF signal on coated c-Met ECD-Fc-Flis; Ab 31250.00 ng/mL
Procedure: as §1

human c-Met [13] = target: T2, human c-Met; assay: cell-based or functional assay; remark: listed apart in the source
human c-Met [14] = target: T2, human c-Met; assay: cell-based or functional assay; remark: listed apart in the source

T2 sequence (P08581 25-1390): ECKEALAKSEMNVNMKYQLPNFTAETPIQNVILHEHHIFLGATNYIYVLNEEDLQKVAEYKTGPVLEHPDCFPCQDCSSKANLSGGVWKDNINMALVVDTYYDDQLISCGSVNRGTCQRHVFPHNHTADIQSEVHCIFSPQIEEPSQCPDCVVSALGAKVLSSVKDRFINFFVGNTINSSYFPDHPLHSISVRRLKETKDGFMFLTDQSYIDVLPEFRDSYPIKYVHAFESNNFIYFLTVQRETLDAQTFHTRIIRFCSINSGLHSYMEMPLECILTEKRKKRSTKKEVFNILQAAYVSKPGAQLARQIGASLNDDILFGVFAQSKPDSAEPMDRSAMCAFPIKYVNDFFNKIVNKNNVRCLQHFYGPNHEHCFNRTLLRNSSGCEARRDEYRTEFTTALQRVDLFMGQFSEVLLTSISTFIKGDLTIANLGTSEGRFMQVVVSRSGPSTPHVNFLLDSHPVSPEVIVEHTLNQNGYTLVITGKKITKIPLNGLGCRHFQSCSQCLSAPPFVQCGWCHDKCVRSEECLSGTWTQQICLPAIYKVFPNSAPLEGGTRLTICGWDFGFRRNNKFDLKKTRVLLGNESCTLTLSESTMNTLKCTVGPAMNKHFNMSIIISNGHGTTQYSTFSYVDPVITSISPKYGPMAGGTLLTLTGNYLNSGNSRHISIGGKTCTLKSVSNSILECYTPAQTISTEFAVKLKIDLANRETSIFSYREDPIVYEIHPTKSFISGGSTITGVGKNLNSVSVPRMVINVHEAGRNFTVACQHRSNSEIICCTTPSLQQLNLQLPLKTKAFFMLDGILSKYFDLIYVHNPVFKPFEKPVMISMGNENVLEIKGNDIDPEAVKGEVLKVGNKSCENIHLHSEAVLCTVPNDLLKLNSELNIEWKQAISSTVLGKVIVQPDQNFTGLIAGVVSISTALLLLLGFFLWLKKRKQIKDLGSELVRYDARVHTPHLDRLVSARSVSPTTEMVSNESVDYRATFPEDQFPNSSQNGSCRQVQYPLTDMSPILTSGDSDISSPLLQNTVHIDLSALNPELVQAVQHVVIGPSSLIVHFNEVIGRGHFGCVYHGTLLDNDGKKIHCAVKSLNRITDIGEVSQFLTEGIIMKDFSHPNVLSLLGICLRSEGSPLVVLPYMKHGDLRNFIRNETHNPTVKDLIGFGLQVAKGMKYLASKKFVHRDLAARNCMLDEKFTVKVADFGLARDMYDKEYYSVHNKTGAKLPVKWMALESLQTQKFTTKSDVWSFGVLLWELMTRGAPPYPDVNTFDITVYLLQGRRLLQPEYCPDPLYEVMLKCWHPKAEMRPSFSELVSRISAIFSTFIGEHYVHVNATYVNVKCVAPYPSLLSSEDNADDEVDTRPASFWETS
T1 sequence (chain, as listed by the source): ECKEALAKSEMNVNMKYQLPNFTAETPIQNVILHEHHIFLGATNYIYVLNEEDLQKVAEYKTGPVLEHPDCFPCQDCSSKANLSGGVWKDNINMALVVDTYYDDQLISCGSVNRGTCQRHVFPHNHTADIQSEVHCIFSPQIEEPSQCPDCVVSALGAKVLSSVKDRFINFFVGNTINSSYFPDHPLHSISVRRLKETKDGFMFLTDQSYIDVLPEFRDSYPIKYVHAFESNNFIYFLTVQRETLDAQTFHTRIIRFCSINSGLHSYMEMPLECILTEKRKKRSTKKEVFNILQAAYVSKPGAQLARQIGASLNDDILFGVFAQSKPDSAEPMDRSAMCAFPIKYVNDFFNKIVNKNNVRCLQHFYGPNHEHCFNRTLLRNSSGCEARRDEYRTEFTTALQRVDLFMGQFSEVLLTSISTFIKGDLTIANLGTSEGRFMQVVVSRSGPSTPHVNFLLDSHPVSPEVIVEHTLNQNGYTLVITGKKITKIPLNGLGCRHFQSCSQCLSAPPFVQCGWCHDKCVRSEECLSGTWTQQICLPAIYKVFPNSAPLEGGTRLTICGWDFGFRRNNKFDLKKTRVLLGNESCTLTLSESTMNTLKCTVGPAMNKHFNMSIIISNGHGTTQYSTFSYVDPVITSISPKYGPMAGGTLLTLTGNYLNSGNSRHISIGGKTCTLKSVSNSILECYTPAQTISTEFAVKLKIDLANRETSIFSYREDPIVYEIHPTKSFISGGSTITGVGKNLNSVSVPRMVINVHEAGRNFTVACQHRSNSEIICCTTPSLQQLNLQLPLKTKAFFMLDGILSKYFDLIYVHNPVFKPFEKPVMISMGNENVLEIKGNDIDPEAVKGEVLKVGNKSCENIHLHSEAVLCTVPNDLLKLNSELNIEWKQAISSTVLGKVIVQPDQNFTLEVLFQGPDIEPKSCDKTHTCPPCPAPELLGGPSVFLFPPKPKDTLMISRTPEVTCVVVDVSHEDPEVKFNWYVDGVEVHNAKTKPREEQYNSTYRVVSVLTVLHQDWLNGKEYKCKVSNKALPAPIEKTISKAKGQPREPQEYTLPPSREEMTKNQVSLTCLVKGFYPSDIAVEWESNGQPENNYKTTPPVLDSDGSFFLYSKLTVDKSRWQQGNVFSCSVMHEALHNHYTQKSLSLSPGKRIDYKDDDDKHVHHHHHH

Binder	AVG A450 nm (human c-Met ECD-Fc-Flis [1])	AVG A450 nm (human c-Met ECD-Fc-Flis [2])	AVG A450 nm (human c-Met ECD-Fc-Flis [3])	AVG A450 nm (human c-Met ECD-Fc-Flis [4])	AVG A450 nm (human c-Met ECD-Fc-Flis [5])	AVG A450 nm (human c-Met ECD-Fc-Flis [6])	AVG A450 nm (human c-Met ECD-Fc-Flis [7])	AVG A450 nm (human c-Met ECD-Fc-Flis [8])	AVG A450 nm (human c-Met ECD-Fc-Flis [9])	AVG A450 nm (human c-Met ECD-Fc-Flis [10])	Mean Fluorescence (c-Met left on the surface of MKN45 cells, FACS), Ab 5.00 ug/mL (human c-Met [11])	AVG A450 nm (human c-Met ECD-Fc-Flis [12])	% inhibition of HGF stimulated phospho-Met (ELISA, HCT116 cells), Ab 0.0032 µg/mL (human c-Met [13])	% inhibition of HGF stimulated phospho-Met (ELISA, HCT116 cells), Ab 0.016 µg/mL (human c-Met [13])	% inhibition of HGF stimulated phospho-Met (ELISA, HCT116 cells), Ab 0.08 µg/mL (human c-Met [13])	% inhibition of HGF stimulated phospho-Met (ELISA, HCT116 cells), Ab 0.4 µg/mL (human c-Met [13])	% inhibition of HGF stimulated phospho-Met (ELISA, HCT116 cells), Ab 2 µg/mL (human c-Met [13])	% inhibition of HGF stimulated phospho-Met (ELISA, HCT116 cells), Ab 10 µg/mL (human c-Met [13])	AVG CPM, 3H-thymidine incorporation in MKN45 cells, Ab 0.0 ng/mL (no antibody) (human c-Met [14])	AVG CPM, 3H-thymidine incorporation in MKN45 cells, Ab 0.1 ng/mL (human c-Met [14])	other results
C8-H241 (antibody, human IgG2, kappa, V domains shown, Named IgG4 kappa; also called Mab C8-H241) VH: QVQLVQSGAEVKKPGASVKVSCKASGYTFTDYYMHWVRQAPGQGLEWMGRVNPNRRGTTYNQKFEGRVTMTTDTSTSTAYMELRSLRSDDTAVYYCARANWLDYWGQGTTVTVSS VL: DIQMTQSPSSLSASVGDRVTITCSVSSSVSSIYLHWYQQKPGKAPKLLIYSTSNLASGVPSRFSGSGSGTDFTLTISSLQPEDFATYYCQVYSGYPLTFGGGTKVEIKR	2.42 A450 nm	1.77 A450 nm	0.69 A450 nm	2.53 A450 nm	0.68 A450 nm	2.46 A450 nm	2.45 A450 nm	0.73 A450 nm	2.61 A450 nm	0.7 A450 nm											
D11-S17Y (antibody, human IgG2, kappa, V domains shown, Human engineered IgG2 kappa c-Met antibody; also called D11-S17Y IgG2) VH: QVQLVQSGAEVKKPGSSVKVSCKASGYTFTSRYIHWVRQAPGQGLEWMGWIYPVTGDTYYNEKFKGRVTITADKSTSTAYMELSSLRSEDTAVYYCARGYGAFYYWGQGTLVTVSS VL: EIVLTQSPGTLSLSPGERATLSCSVSSSISSTNLHWYQQKPGQAPRLLIYGTSYLASGIPDRFSGSGSGTDFTLTISRLEPEDFAVYYCQQWSSYPYSFGQGTKLEIKR	2.07 A450 nm	1.69 A450 nm	1.35 A450 nm	2.08 A450 nm	1.23 A450 nm	1.98 A450 nm	2.15 A450 nm	1.29 A450 nm	2.43 A450 nm	1.12 A450 nm	56.4	1.17 A450 nm	9.48%	2.53%	-3.24%	15.9%	31.4%	16.7%	44200 CPM	44600 CPM	AVG CPM, 3H-thymidine incorporation in MKN45 cells, Ab 0.4 ng/mL (human c-Met [14]): 45300 CPM; AVG CPM, 3H-thymidine incorporation in MKN45 cells, Ab 2.6 ng/mL (human c-Met [14]): 49900 CPM; AVG CPM, 3H-thymidine incorporation in MKN45 cells, Ab 15.4 ng/mL (human c-Met [14]): 39700 CPM; AVG CPM, 3H-thymidine incorporation in MKN45 cells, Ab 92.6 ng/mL (human c-Met [14]): 21900 CPM; AVG CPM, 3H-thymidine incorporation in MKN45 cells, Ab 555.6 ng/mL (human c-Met [14]): 20900 CPM; AVG CPM, 3H-thymidine incorporation in MKN45 cells, Ab 3333.3 ng/mL (human c-Met [14]): 21200 CPM; AVG CPM, 3H-thymidine incorporation in MKN45 cells, Ab 20000.0 ng/mL (human c-Met [14]): 19800 CPM
D11-8B8 (antibody, human IgG2, kappa, V domains shown, Human engineered IgG2 kappa c-Met antibody; also called Mab D11-8B8; D11-8B8 IgG2) VH: QVQLVQSGAEVKKPGSSVKVSCKASGYTFTSRYIHWVRQAPGQGLEWMGWIYPVTGDTYYIEKFKGRVTITADKSTSTAYMELSSLRSEDTAVYYCARGYGAFFYWGQGTLVTVSS VL: EIVLTQSPGTLSLSPGERATLSCSVSSSISSTNLHWYQQKPGQAPRLLIYGTSYLASGIPDRFSGSGSGTDFTLTISRLEPEDFAVYYCQQWSSYPYSFGQGTKLEIKR	2.32 A450 nm	1.92 A450 nm	1.38 A450 nm	2.41 A450 nm	1.43 A450 nm	2.48 A450 nm	2.51 A450 nm	1.3 A450 nm	2.43 A450 nm	1.24 A450 nm	44.7	1.31 A450 nm	-10.4%	-6.68%	10.5%	35%	40.7%	19.6%	50400 CPM	41600 CPM	AVG CPM, 3H-thymidine incorporation in MKN45 cells, Ab 0.4 ng/mL (human c-Met [14]): 43300 CPM; AVG CPM, 3H-thymidine incorporation in MKN45 cells, Ab 2.6 ng/mL (human c-Met [14]): 44700 CPM; AVG CPM, 3H-thymidine incorporation in MKN45 cells, Ab 15.4 ng/mL (human c-Met [14]): 24400 CPM; AVG CPM, 3H-thymidine incorporation in MKN45 cells, Ab 92.6 ng/mL (human c-Met [14]): 11100 CPM; AVG CPM, 3H-thymidine incorporation in MKN45 cells, Ab 555.6 ng/mL (human c-Met [14]): 11900 CPM; AVG CPM, 3H-thymidine incorporation in MKN45 cells, Ab 3333.3 ng/mL (human c-Met [14]): 11400 CPM; AVG CPM, 3H-thymidine incorporation in MKN45 cells, Ab 20000.0 ng/mL (human c-Met [14]): 11200 CPM
D11-C27G3 (antibody, human IgG2, kappa, V domains shown, Human engineered IgG2 kappa c-Met antibody; also called D11-27G3; D11-C27G3 IgG2) VH: QVQLVQSGAEVKKPGSSVKVSCKASGYTFTSRYIHWVRQAPGQGLEWMGWIYPVTGDTYYREPFKGRVTITADKSTSTAYMELSSLRSEDTAVYYCARGYGAFYYWGQGTLVTVSS VL: EIVLTQSPGTLSLSPGERATLSCSVSSSISSTNLHWYQQKPGQAPRLLIYGTSRLRSGIPDRFSGSGSGTDFTLTISRLEPEDFAVYYCQQWSSYPYSFGQGTKLEIKR	2.38 A450 nm	1.6 A450 nm	0.89 A450 nm	2.27 A450 nm	0.97 A450 nm	2.31 A450 nm	2.37 A450 nm	0.94 A450 nm	2.43 A450 nm	0.91 A450 nm	51.1	0.94 A450 nm	9.72%	5.73%	20.8%	38.1%	31.8%	1.25%	44200 CPM	41500 CPM	AVG CPM, 3H-thymidine incorporation in MKN45 cells, Ab 0.4 ng/mL (human c-Met [14]): 44000 CPM; AVG CPM, 3H-thymidine incorporation in MKN45 cells, Ab 2.6 ng/mL (human c-Met [14]): 47000 CPM; AVG CPM, 3H-thymidine incorporation in MKN45 cells, Ab 15.4 ng/mL (human c-Met [14]): 28700 CPM; AVG CPM, 3H-thymidine incorporation in MKN45 cells, Ab 92.6 ng/mL (human c-Met [14]): 14600 CPM; AVG CPM, 3H-thymidine incorporation in MKN45 cells, Ab 555.6 ng/mL (human c-Met [14]): 16000 CPM; AVG CPM, 3H-thymidine incorporation in MKN45 cells, Ab 3333.3 ng/mL (human c-Met [14]): 16900 CPM; AVG CPM, 3H-thymidine incorporation in MKN45 cells, Ab 20000.0 ng/mL (human c-Met [14]): 18400 CPM
